Data set [1] concerns the target epidermal growth factor receptor (EGFR) on A431 epidermoid carcinoma cells (human) (UniProt P00533). As to the kind of experiment: flow cytometry of stained A431 cells immediately before and after FACS. (In general: Flow cytometry measures light scatter and fluorescence of single cells or particles in a stream.)
The target of data set [2] is EGFR (epidermal growth factor receptor) (Homo sapiens, UniProt P00533 P00533:25-1210). As to the kind of experiment: flow; apparent; A431 cells, on ice 30 min, media + 1% BSA + salmon sperm DNA; binding blocked or reversed at 37 C by antidotes A9 and mA9 but not scrambled sA9. The settings on record: tags: endogenous on A431 epidermoid carcinoma cells (ATCC); label: 5' AF488. As for the experimental part:
All aptamers were folded in PBS+/+ by denaturation at 65° C. for 5 min followed by passive cooling to ambient temperature for 3 min. In general, 500 nM aptamer solutions were used for staining, but this concentration varied as noted in some assays. For aptamer-SA staining solutions, 2:1 aptamer conjugates were prepared with 1 μM aptamer and 500 nM AF488-SA or AF647-SA. All staining solutions were prepared in Media+ and contained 1 mg/mL salmon sperm DNA to mitigate non-specific binding. All antibodies were used as 1:50 dilutions in Media+ with 1 mg/mL salmon sperm DNA. Both FITC-conjugated ICR10 (Abcam) and PE-conjugated D1D4J (Cell Signaling Technologies) monoclonal EGFR antibodies were used for staining.
A431 cells were stained with various concentrations (25, 50, 125, 250 or 500 nM) of E07 only or E07-SA conjugate mixtures prepared by reacting 1:1, 2:1 or 3:1 biotinylated E07 with tetrameric streptavidin. Stained cells were washed, analyzed by flow cytometry and their fluorescence corresponding to the amount of bound E07 or E07-SA was plotted to determine apparent binding affinities (dissociation constants; KD) and cell surface saturation (total number of receptors; Bmax). Conjugate mixtures prepared from higher E07: SA ratios had higher apparent affinities, but lower apparent saturation.

Results on 3 molecules are retold here after patent publication US20200095636A1, “ANTIDOTE-MEDIATED REVERSAL OF EXTRACELLULAR APTAMER STAINING” (Duke University, published 2020).

Molecule “FITC-conjugated ICR10 (Abcam) monoclonal EGFR antibody” showed a losses during sorting (percent of stain fluorescence lost) in data set [1] of 11%. Same read-out and setting: as for “PE-conjugated D1D4J (Cell Signaling Technologies) monoclonal EGFR antibody”, the figure is 11%.

Consider GGACGGAUUUAAUCGCCGUAGAAAGCAUGUCAAAGCCGGAACCGUCC (ssRNA, 2'-F C/U, 2'-OH purines, 3' idT) [E07], for which the Kd in data set [2] turned out to be 62.7 nM.
